The text below walks through data of patent publication US20110217291A1.

The target of assay [1] is IgG of IgG Sepharose 6 Fast Flow resin (GE Healthcare). Description: IgG-Sepharose column, purified protein, Western blot. For orientation: In western blotting, separated proteins are transferred to a membrane and probed.
Assay [2] deals with human IgG1 antibody (Lambda from human myeloma plasma, Sigma-Aldrich) (human). The assay can be described thus: SPR (Biacore), IgG1 immobilized at 485 RU, receptor as analyte.
Assay [3] concerns the target IgG of IgG Sepharose 6 Fast Flow resin (GE Healthcare). The assay can be described thus: batch binding of 293F conditioned media to IgG Sepharose, Western blot quantitation, n=2.
The target in assay [4] is human IgG1 antibody (Lambda from human myeloma plasma, Sigma-Aldrich) (human). The assay can be described thus: SPR (Biacore 3000), IgG1 immobilized at 458 RU, receptor as analyte, 1:1 model. (In general: Surface plasmon resonance follows binding to a sensor surface in real time, without labels.)
Assay [5] has as its target IgG of IgG Sepharose 6 Fast Flow resin (GE Healthcare). Description: IgG-Sepharose column, one-day conditioned media of CHO cells at 37° C., Western blot.
The target is the same in assay [6]. Description: IgG-Sepharose column, 24 h CHO conditioned media, Western blot.
Assay [7] deals with human IgG1 antibody (Lambda from human myeloma plasma, Sigma-Aldrich) (human). The assay can be described thus: SPR (Biacore 3000), steady state, IgG1 immobilized at 1013 RU, receptor as analyte.

Chain of FcγRIA-CH6 (extracellular domain of human FcγRIA with a C-terminal six His tag) (P12314 other isoform, or with tags, fused parts or gaps): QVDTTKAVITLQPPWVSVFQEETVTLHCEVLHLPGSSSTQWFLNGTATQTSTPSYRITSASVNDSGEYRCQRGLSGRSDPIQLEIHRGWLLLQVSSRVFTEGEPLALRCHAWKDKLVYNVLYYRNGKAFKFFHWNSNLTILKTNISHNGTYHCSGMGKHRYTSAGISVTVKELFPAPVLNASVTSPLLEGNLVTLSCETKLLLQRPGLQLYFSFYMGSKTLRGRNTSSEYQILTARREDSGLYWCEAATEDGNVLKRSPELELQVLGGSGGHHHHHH
Chain of untagged recombinant soluble human FcγRIA (P12314 16-282): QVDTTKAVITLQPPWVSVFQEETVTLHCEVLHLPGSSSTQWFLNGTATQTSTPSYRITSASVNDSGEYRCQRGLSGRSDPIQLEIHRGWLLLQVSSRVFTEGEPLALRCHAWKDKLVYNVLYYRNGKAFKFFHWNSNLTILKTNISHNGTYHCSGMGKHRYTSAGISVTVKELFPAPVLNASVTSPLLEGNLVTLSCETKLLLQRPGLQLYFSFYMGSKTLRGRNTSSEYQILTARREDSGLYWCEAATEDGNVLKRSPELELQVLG
Chain of aggregated FcγRIA (purified soluble FcγRIA incubated at 37° C.) (P12314 16-282): as above
Chain of FcγRIIIA-CH6 (soluble monomeric human FcγRIIIA extracellular domain with C-terminal His6 tag) (P08637 other isoform, or with tags, fused parts or gaps): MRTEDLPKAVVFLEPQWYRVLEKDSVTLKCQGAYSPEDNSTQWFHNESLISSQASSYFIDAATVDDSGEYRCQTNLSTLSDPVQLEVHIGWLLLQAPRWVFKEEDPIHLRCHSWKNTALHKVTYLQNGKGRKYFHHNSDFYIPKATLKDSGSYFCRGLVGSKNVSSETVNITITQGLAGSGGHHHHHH

Turning to “aggregated FcγRIA (purified soluble FcγRIA incubated at 37° C.) (from UniProt P12314 16-282) (receptor)”, in assay [1], the percent of total in bound fraction turned out to be 4% and the percent of total in unbound wash fraction stood at 96%.
In assay [2], “FcγRIA-CH6 (extracellular domain of human FcγRIA with a C-terminal six His tag) (from UniProt P12314 16-282) (receptor)” showed an equilibrium dissociation constant (Kd) of 0.17 nM, a koff of 0.00046 s⁻¹ and a kon of 2.8e+06 M⁻¹ s⁻¹. In addition, in assay [3], the percent of total expressed in IgG Sepharose flow-through (aggregate amount) was 66% and the percent of total expressed recovered from IgG resin worked out at 21%. In assay [4], this substance showed a Kd of 0.17 nM, a koff of 0.00046 s⁻¹ and a kon of 2.8e+06 M⁻¹ s⁻¹.
In assay [2], “untagged recombinant soluble human FcγRIA (from UniProt P12314 16-282) (receptor)” came in with an equilibrium dissociation constant (Kd) of 0.17 nM, a dissociation rate constant (koff) of 0.00046 s⁻¹ and an on-rate (kon) of 2.8e+06 M⁻¹ s⁻¹. Further, in assay [5], the percent of recovered protein bound and eluted came to 20%; the percent of recovered protein in unbound fraction was determined as 80%. In addition, in assay [6], the percent of total applied bound to IgG-Sepharose amounted to 14% and the percent of total applied in the wash (unbound) was 86%.
In assay [7], “FcγRIIA-CH6 (soluble monomeric human FcγRIIA extracellular domain with C-terminal His6 tag) (from UniProt P12318 34-212) (receptor)” showed an equilibrium dissociation constant (Kd) of 1900 nM.
For “FcγRIIIA-CH6 (soluble monomeric human FcγRIIIA extracellular domain with C-terminal His6 tag) (from UniProt P08637 18-195) (receptor)”, in assay [7], the dissociation constant Kd came out at 630 nM.

The term Kd denotes a measure of binding affinity in units of concentration. The term koff denotes the rate constant with which the complex falls apart. Low readings indicate slow dissociation, high ones fast dissociation. As a reminder, the kon is the rate constant with which the complex forms. Low readings indicate slow association, high ones fast association.
